The chains are these.
B1: Catenin alpha-1 (Mus musculus), P26231 (parent)
chain: MTAVHAGNINFKWDPKSLEIRTLAVERLLEPLVTQVTTLVNTNSKGPSNKKRGRSKKAHVLAASVEQATENFLEKGDKIAKESQFLKEELVVAVEDVRKQGDLMKSAAGEFADDPCSSVKRGNMVRAARALLSAVTRLLILADMADVYKLLVQLKVVEDGILKLRNAGNEQDLGIQYKALKPEVDKLNIMAAKRQQELKDVGNRDQMAAARGILQKNVPILYTASQACLQHPDVAAYKANRDLIYKQLQQAVTGISNAAQATASDDAAQHQGGSGGELAYALNNFDKQIIVDPLSFSEERFRPSLEERLESIISGAALMADSSCTRDDRRERIVAECNAVRQALQDLLSEYMGNAGRKERSDALNSAIDKMTKKTRDLRRQLRKAVMDHVSDSFLETNVPLLVLIEAAKNGNEKEVKEYAQVFREHANKLIEVANLACSISNNEEGVKLVRMSASQLEALCPQVINAALALAAKPQSKLAQENMDLFKEQWEKQVRVLTDAVDDITSIDDFLAVSENHILEDVNKCVIALQEKDVDGLDRTAGAIRGRAARVIHVVTSEMDNYEPGVYTEKVLEATKLLSNTVMPRFTEQVEAAVEALSSDPAQPMDENEFIDASRLVYDGIRDIRKAVLMIRTPEELDDSDFETEDFDVRSRTSVQTEDDQLIAGQSARAIMAQLPQEQKAKIAEQVASFQEEKSKLDAEVSKWDDSGNDIIVLAKQMCMIMMEMTDFTRGKGPLKNTSDVISAAKKIAEAGSRMDKLGRTIADHCPDSACKQDLLAYLQRIALYCHQLNICSKVKAEVQNLGGELVVSGVDSAMSLIQAAKNLMNAVVQTVKASYVASTKYQKSQGMASLNLPAVSWKMKAPEKKPLVKREKQDETQTKIKRASQKKHVNPVQALSEFKAMDSI

In the assay the parent is B1. Particulars: with ctnb1_human CTNNB1, P35222.
ctnb1_human CTNNB1, P35222, sequence (P35222 whole entry): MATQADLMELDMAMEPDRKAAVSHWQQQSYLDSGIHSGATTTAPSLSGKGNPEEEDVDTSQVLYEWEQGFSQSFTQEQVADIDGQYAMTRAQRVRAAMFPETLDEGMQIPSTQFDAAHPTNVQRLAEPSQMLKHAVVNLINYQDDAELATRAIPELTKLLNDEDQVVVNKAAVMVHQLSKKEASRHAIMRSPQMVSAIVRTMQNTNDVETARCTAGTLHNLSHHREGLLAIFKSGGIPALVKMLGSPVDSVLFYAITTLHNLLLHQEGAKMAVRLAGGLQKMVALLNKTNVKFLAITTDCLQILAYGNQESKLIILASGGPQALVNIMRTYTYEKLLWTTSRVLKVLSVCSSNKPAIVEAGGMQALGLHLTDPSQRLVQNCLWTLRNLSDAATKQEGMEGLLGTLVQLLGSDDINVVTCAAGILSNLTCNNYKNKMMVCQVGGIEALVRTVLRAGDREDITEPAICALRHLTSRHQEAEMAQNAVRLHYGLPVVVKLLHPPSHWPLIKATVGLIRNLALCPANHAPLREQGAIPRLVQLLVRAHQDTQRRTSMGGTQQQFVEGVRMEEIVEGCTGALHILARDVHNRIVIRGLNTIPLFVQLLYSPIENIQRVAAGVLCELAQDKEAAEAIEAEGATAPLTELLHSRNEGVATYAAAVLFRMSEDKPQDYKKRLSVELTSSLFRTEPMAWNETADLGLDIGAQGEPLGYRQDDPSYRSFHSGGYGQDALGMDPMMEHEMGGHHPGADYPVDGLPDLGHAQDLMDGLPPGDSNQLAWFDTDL
On to V135A, for which the “effect of a mutation on the interaction” value is “decreasing interaction”. As for L132A, the entry is “decreasing interaction”; as for L138A, “decreasing interaction”. To R129A belongs “increasing interaction”.

On to S133A, for which the “effect of a mutation on the interaction” value is reported as “increasing interaction”.

Consider L139A, for which the “effect of a mutation on the interaction” value is “decreasing interaction”.

Turning to L131A, the “effect of a mutation on the interaction” value is recorded as “decreasing interaction”. A142S: the “effect of a mutation on the interaction” value was “decreasing interaction”. As to L141A, the “effect of a mutation on the interaction” value is on record as “decreasing interaction”. As for V125A, the entry is “decreasing interaction”. As for R126A, the entry is “increasing interaction”; as for T136A, “increasing interaction”; as for R137A, “decreasing interaction”.

(Values after IntAct's records for PubMed 9264463.)
